In publication PMC6128611, “The molecular structure of Schistosoma mansoni PNP isoform 2 provides insights into the nucleoside selectivity of PNPs” (PLoS ONE, 2018):

Columns and labels:
[1] = target: T1, SmPNP2 (purine nucleoside phosphorylase isoform 2) (Schistosoma mansoni, UniProt A0A0U3AGT1); experiment: crystal structure at […] Å, ternary complex with cytosine; format: binding
T1 construct: ORF of 287 amino acids, 6His-SUMO tag cleaved
T1 sequence (A0A0U3AGT1 1-287): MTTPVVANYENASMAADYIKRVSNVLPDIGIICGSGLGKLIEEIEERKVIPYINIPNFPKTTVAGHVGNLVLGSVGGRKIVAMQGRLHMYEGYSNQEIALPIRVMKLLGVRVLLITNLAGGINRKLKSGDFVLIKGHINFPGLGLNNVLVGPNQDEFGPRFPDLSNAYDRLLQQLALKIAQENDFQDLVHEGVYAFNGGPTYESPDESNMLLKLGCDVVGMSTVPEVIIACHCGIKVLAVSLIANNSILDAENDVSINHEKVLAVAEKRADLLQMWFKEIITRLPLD

[2] = target: T1, SmPNP2 (purine nucleoside phosphorylase isoform 2); experiment: ITC; crystal structure at […] Å; format: binding
[3] = target: T1, SmPNP2 (purine nucleoside phosphorylase isoform 2); experiment: crystal structure at […] Å (soaking); format: binding
[4] = substrate: Nc1ccn([C@@H]2O[C@H](CO)[C@@H](O)[C@H]2O)c(=O)n1; experiment: purified protein; conditions: active site; direct H-bonds of base with Met221 and Glu203, ribose O5 with His259 and Tyr202
[5] = substrate: Nc1ncnc2c1ncn2[C@@H]1O[C@H](CO)[C@@H](O)[C@H]1O; experiment: xanthine oxidase-coupled phosphorolysis kinetics (KM); format: biochemical, Schistosoma mansoni; conditions: phosphate (co-substrate)
[6] = substrate: OC[C@H]1O[C@@H](n2cnc3c(O)ncnc32)[C@H](O)[C@@H]1O; experiment: as above; format: biochemical, Schistosoma mansoni; conditions: phosphate (co-substrate)

O=P(O)(O)O[C@H]1O[C@H](CO)[C@@H](O)[C@H]1O [R1P, ribose-1-phosphate]
crystal structure at 1.42 Å, ternary complex with cytosine [1]: As expected the R1P binds in SmPNP2 in a similar way to that observed for SmPNP1–R1P complex

Nc1cc[nH]c(=O)n1 [CYT, cytosine]
Kd [2]: 27 µM

Nc1ncnc2c1ccn2[C@@H]1O[C@H](CO)[C@@H](O)[C@H]1O [tubercidin]
crystal structure at 1.95 Å (soaking) [3]: three complexes were obtained: SmPNP2–tubercidin (7-deaza-adenosine), SmPNP2–hypoxanthine and SmPNP2–adenine

B1: SmPNP2 (purine nucleoside phosphorylase isoform 2) (Schistosoma mansoni) (protein)
chain: MTTPVVANYENASMAADYIKRVSNVLPDIGIICGSGLGKLIEEIEERKVIPYINIPNFPKTTVAGHVGNLVLGSVGGRKIVAMQGRLHMYEGYSNQEIALPIRVMKLLGVRVLLITNLAGGINRKLKSGDFVLIKGHINFPGLGLNNVLVGPNQDEFGPRFPDLSNAYDRLLQQLALKIAQENDFQDLVHEGVYAFNGGPTYESPDESNMLLKLGCDVVGMSTVPEVIIACHCGIKVLAVSLIANNSILDAENDVSINHEKVLAVAEKRADLLQMWFKEIITRLPLD
notes: ORF of 287 amino acids, 6His-SUMO tag cleaved
Km [4]: 76.3 µM | Vmax [4]: 60 µM/min | kcat [4]: 2 s⁻¹ | kcat/Km [4]: 26200 M⁻¹ s⁻¹ | Km [5]: 22.3 µM | Vmax [5]: 60 µM/min | kcat [5]: 1.02 ± 0.02 s⁻¹ | kcat/Km [5]: 46000 ± 5200 M⁻¹ s⁻¹ | Km [6]: 136.4 µM | Vmax [6]: 360 µM/min | kcat [6]: 7 ± 0.2 s⁻¹ | kcat/Km [6]: 50600 ± 2900 M⁻¹ s⁻¹
